Results taken from patent publication US20150147764.

Assays:
[1] = test system: FRETS-VWF73 polypeptide substrate (SEQ ID NO: 6), VWF D1596 to R1668
[2] = test system: GTI_FRET4 polypeptide substrate (SEQ ID NO: 1), synthetic 62 amino acid VWF A2 domain derived substrate
[3] = test system: GTI_FRET5 polypeptide substrate (SEQ ID NO: 7), synthetic 55 amino acid VWF A2 domain derived substrate
Chain of GTI_FRET5 polypeptide substrate (SEQ ID NO: 7), synthetic 55 amino acid VWF A2 domain derived substrate (chain, as listed by the source): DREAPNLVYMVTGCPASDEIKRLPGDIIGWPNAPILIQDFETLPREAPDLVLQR

Chain of GTI_FRET4 polypeptide substrate (SEQ ID NO: 1), synthetic 62 amino acid VWF A2 domain derived substrate (chain, as listed by the source): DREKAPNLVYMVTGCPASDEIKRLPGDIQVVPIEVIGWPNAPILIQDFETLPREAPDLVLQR
Chain of FRETS-VWF73 polypeptide substrate (SEQ ID NO: 6), VWF D1596 to R1668 (chain, as listed by the source): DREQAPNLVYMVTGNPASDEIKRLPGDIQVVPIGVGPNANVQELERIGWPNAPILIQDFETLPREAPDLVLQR

“ADAMTS13 (a disintegrin-like and metallopeptidase with thrombospondin type-1 motif, 13), as present in plasma samples, calibrators and controls” was tested, and the “RFU difference between Calibrator A and Calibrator E at 30 minutes” value [1] was “approximately 1500 to 2000 RFU difference”, the “RFU difference between Calibrator A and E at 30 minutes” value [1] was 2500 RFU observed for FRETS-VWF73 and the Increase in fluorescence (15 min - 0 min reading), sample Calibrator A [2] was 676 RFU. The Increase in fluorescence (15 min - 0 min reading), sample Calibrator B [2] was 1760 RFU, the Increase in fluorescence (15 min - 0 min reading), sample Calibrator C [2] was 6180 RFU and the Increase in fluorescence (15 min - 0 min reading), sample Calibrator D [2] was 10900 RFU. It also gave an Increase in fluorescence (15 min - 0 min reading), sample Calibrator E [2] of 18700 RFU, an Increase in fluorescence (15 min - 0 min reading), sample MON110707 [2] of 17900 RFU and an Increase in fluorescence (15 min - 0 min reading), sample Positive Control High [2] of 9150 RFU. It also gave an Increase in fluorescence (15 min - 0 min reading), sample Positive Control Low [2] of 2180 RFU, an Increase in fluorescence (15 min - 0 min reading), sample UAMS041609 [2] of 3880 RFU and an Increase in fluorescence (15 min - 0 min reading), sample VF [2] of 1290 RFU. It also gave an Increase in fluorescence (30 min - 0 min reading), sample Calibrator A [2] of 843 RFU, an Increase in fluorescence (30 min - 0 min reading), sample Calibrator B [2] of 3000 RFU and an Increase in fluorescence (30 min - 0 min reading), sample Calibrator C [2] of 11700 RFU. The Increase in fluorescence (30 min - 0 min reading), sample Calibrator D [2] was 20600 RFU, the Increase in fluorescence (30 min - 0 min reading), sample Calibrator E [2] was 35100 RFU and the Increase in fluorescence (30 min - 0 min reading), sample MON110707 [2] was 33400 RFU. For the same substance, the Increase in fluorescence (30 min - 0 min reading), sample Positive Control High [2] was 17300 RFU, the Increase in fluorescence (30 min - 0 min reading), sample Positive Control Low [2] was 3900 RFU and the Increase in fluorescence (30 min - 0 min reading), sample UAMS041609 [2] was 7930 RFU. It also gave an Increase in fluorescence (30 min - 0 min reading), sample VF [2] of 2440 RFU, an Increase in fluorescence (45 min - 0 min reading), sample Calibrator A [2] of 921 RFU and an Increase in fluorescence (45 min - 0 min reading), sample Calibrator B [2] of 4160 RFU. For the same substance, the Increase in fluorescence (45 min - 0 min reading), sample Calibrator C [2] was 16800 RFU, the Increase in fluorescence (45 min - 0 min reading), sample Calibrator D [2] was 29200 RFU and the Increase in fluorescence (45 min - 0 min reading), sample Calibrator E [2] was 49400 RFU. For the same substance, the Increase in fluorescence (45 min - 0 min reading), sample MON110707 [2] was 46800 RFU, the Increase in fluorescence (45 min - 0 min reading), sample Positive Control High [2] was 24900 RFU and the Increase in fluorescence (45 min - 0 min reading), sample Positive Control Low [2] was 5510 RFU. For the same substance, the Increase in fluorescence (45 min - 0 min reading), sample UAMS041609 [2] was 11700 RFU, the Increase in fluorescence (45 min - 0 min reading), sample VF [2] was 3550 RFU and the Increase in fluorescence (60 min - 0 min reading), sample Calibrator A [2] was 1170 RFU. For the same substance, the Increase in fluorescence (60 min - 0 min reading), sample Calibrator B [2] was 5360 RFU, the Increase in fluorescence (60 min - 0 min reading), sample Calibrator C [2] was 21700 RFU and the Increase in fluorescence (60 min - 0 min reading), sample Calibrator D [2] was 37300 RFU. The Increase in fluorescence (60 min - 0 min reading), sample Calibrator E [2] was 61100 RFU, the Increase in fluorescence (60 min - 0 min reading), sample MON110707 [2] was 58700 RFU and the Increase in fluorescence (60 min - 0 min reading), sample Positive Control High [2] was 31900 RFU. The Increase in fluorescence (60 min - 0 min reading), sample Positive Control Low [2] was 7170 RFU, the Increase in fluorescence (60 min - 0 min reading), sample UAMS041609 [2] was 15900 RFU and the Increase in fluorescence (60 min - 0 min reading), sample VF [2] was 4690 RFU. The Increase in fluorescence (75 min - 0 min reading), sample Calibrator A [2] was 1010 RFU, the Increase in fluorescence (75 min - 0 min reading), sample Calibrator B [2] was 6470 RFU and the Increase in fluorescence (75 min - 0 min reading), sample Calibrator C [2] was 26700 RFU. For the same substance, the Increase in fluorescence (75 min - 0 min reading), sample Calibrator D [2] was 44500 RFU, the Increase in fluorescence (75 min - 0 min reading), sample Calibrator E [2] was 70600 RFU and the Increase in fluorescence (75 min - 0 min reading), sample MON110707 [2] was 68400 RFU. For the same substance, the Increase in fluorescence (75 min - 0 min reading), sample Positive Control High [2] was 39800 RFU, the Increase in fluorescence (75 min - 0 min reading), sample Positive Control Low [2] was 8790 RFU and the Increase in fluorescence (75 min - 0 min reading), sample UAMS041609 [2] was 19900 RFU. For the same substance, the Increase in fluorescence (75 min - 0 min reading), sample VF [2] was 5780 RFU, the Increase in fluorescence (90 min - 0 min reading), sample Calibrator A [2] was 959 RFU and the Increase in fluorescence (90 min - 0 min reading), sample Calibrator B [2] was 7580 RFU. For the same substance, the Increase in fluorescence (90 min - 0 min reading), sample Calibrator C [2] was 32200 RFU, the Increase in fluorescence (90 min - 0 min reading), sample Calibrator D [2] was 53600 RFU and the Increase in fluorescence (90 min - 0 min reading), sample Calibrator E [2] was 83000 RFU. For the same substance, the Increase in fluorescence (90 min - 0 min reading), sample MON110707 [2] was 78400 RFU, the Increase in fluorescence (90 min - 0 min reading), sample Positive Control High [2] was 47500 RFU and the Increase in fluorescence (90 min - 0 min reading), sample Positive Control Low [2] was 10400 RFU. The Increase in fluorescence (90 min - 0 min reading), sample UAMS041609 [2] was 24700 RFU, the Increase in fluorescence (90 min - 0 min reading), sample VF [2] was 7260 RFU and the “RFU difference between Calibrator A (0% ADAMTS13 activity) and Calibrator E (100% ADAMTS13 activity) at 30 minutes” value [2] was “approximately 34,000 Relative Fluorescence Units (RFU) difference”. The “RFU difference between Calibrator A and E at 30 minutes” value [2] was “approximately 35000 RFU”, the “calibration curve / cleavage” value [3] was “the resulting calibration curve that is obtained is linear (see FIG. 5) and cleavage of the substrate occurs” and the “change in fluorescence with time (cleavage)” value [3] was “demonstrates that cleavage of the SEQ ID NO: 7 polypeptide substrate occurs”.
